{"source": "paper PMC12403835", "key": {"C1q complement component": {"target": "C1q complement component (UniProt P02745)", "sequence (P02745 23-245, chain 1 of 3)": "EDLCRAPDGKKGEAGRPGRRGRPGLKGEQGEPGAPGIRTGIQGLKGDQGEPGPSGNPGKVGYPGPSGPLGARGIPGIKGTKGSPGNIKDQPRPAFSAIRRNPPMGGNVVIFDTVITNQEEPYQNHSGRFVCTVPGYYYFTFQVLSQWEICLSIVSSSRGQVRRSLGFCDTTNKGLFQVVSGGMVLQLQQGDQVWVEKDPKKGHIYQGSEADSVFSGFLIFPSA", "sequence (P02746 28-253, chain 2 of 3, further chain)": "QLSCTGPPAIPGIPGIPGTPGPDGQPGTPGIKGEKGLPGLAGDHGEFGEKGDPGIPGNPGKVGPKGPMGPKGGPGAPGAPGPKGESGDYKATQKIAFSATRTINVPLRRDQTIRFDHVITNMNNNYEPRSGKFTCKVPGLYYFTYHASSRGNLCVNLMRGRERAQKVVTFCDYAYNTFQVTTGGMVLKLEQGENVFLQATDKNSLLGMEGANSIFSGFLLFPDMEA", "sequence (P02747 29-245, chain 3 of 3, further chain)": "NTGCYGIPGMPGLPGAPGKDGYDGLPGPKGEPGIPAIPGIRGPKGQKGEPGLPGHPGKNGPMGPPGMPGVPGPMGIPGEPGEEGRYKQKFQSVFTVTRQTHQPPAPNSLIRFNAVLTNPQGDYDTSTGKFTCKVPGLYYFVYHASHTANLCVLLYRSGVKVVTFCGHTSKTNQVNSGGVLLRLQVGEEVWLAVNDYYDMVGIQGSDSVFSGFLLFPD", "experiment": "BLI"}, "FcgR3a(F), biotinylated": {"target": "FcgR3a(F), biotinylated (UniProt P08637)", "experiment": "SPR"}, "FcgR3b Biotinylated": {"target": "FcgR3b Biotinylated (UniProt O75015)", "sequence (O75015 17-200)": "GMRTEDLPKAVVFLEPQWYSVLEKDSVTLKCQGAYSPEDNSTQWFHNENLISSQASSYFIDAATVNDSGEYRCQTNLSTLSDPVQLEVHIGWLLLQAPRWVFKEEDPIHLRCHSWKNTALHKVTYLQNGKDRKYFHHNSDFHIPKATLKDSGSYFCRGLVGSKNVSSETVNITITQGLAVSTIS", "experiment": "SPR"}, "FcgR3a(V), biotinylated": {"target": "FcgR3a(V), biotinylated (UniProt P08637)", "experiment": "SPR"}}, "data": [{"substance": "CIS43-LS-AFUC (afucosylated CIS43-LS)", "values": [{"measurement": "Kd", "setting": "C1q complement component", "result": 1.7, "unit": "nM"}, {"measurement": "Kd", "setting": "FcgR3a(F), biotinylated", "result": 160, "unit": "nM"}, {"measurement": "Kd", "setting": "FcgR3b Biotinylated", "result": 330, "unit": "nM"}]}, {"substance": "CIS43-LS-G236A (IgG1m3-LS-GA)", "values": [{"measurement": "Kd", "setting": "FcgR3a(F), biotinylated", "result": 4620, "unit": "nM"}, {"measurement": "Kd", "setting": "FcgR3a(V), biotinylated", "result": 1270, "unit": "nM"}, {"measurement": "Kd", "setting": "FcgR3b Biotinylated", "result": 17400, "unit": "nM"}]}, {"substance": "CIS43 wild-type mAb (IgG1m3)", "values": [{"measurement": "Kd", "setting": "C1q complement component", "result": 1.8, "unit": "nM"}, {"measurement": "Kd", "setting": "FcgR3a(F), biotinylated", "result": 2510, "unit": "nM"}, {"measurement": "Kd", "setting": "FcgR3a(V), biotinylated", "result": 590, "unit": "nM"}, {"measurement": "Kd", "setting": "FcgR3b Biotinylated", "result": 5240, "unit": "nM"}]}, {"substance": "CIS43-LS (IgG1m3-LS)", "values": [{"measurement": "Kd", "setting": "C1q complement component", "result": 1.5, "unit": "nM"}, {"measurement": "Kd", "setting": "FcgR3a(F), biotinylated", "result": 2780, "unit": "nM"}, {"measurement": "Kd", "setting": "FcgR3a(V), biotinylated", "result": 590, "unit": "nM"}, {"measurement": "Kd", "setting": "FcgR3b Biotinylated", "result": 5010, "unit": "nM"}]}, {"substance": "CIS43-LS-GAALIE (IgG1m3-LS-GAALIE)", "values": [{"measurement": "Kd", "setting": "FcgR3b Biotinylated", "result": 1020, "unit": "nM"}]}]}
